# Assay results: patent US20150266968A1 (COMPLIX, published 2015)
# Tests used:
# [1] = biological target: T1, GST-tagged recombinant human MCL-1 (residues 172 to 327) (human, UniProt Q07820 172-327); experiment: ELISA: Alphabody (500 nM) captured by immobilized anti-V5 antibody, five-fold dilutions of GST-MCL-1, detection with anti-GST-HRP, OD read at 492 nm and 630 nm
# T1 construct: Produced in E. coli as an N-terminal GST fusion and purified using the GST-tag; also called recombinant MCL-1; GST-MCL-1; not shown: N-terminal GST tag and any linker or cleavage site between GST and MCL-1
# [2] = biological target: T1, GST-tagged recombinant human MCL-1 …; experiment: ELISA: Alphabody (500 nM) captured by immobilized anti-V5 antibody, five-fold dilutions of GST-tagged recombinant protein, detection with anti-GST-HRP, OD read at 492 nm and 630 nm
# Description: (§1) FIG. 13: Binding of recombinant BCL-2 family proteins to Alphabody AB1_pan_hiKR3-V5. Alphabody (500 nM) was captured by immobilized anti-V5 antibody (5 microg/ml) to a microtiterplate. Binding of five-fold dilutions of Glutathione S transferase (GST)-tagged recombinant BCL-2 family proteins MCL-1, BCL-XL and BCL-2a was detected using a anti-GST antibody conjugated to Horse Radish Peroxidase. Plates were read at 492 nm and 630 nm.
# (§2) Maxisorp Nunc plates were coated with 100 microl anti-V5 antibody (5 microg/ml) in carbonate buffer pH 9.6 overnight at 4° C. The next day, plates were washed 3 times with Tris Buffered Saline containing 0.05% Tween 20 (TBST) and blocked with TBS containing 0.1% BSA and 0.5% gelatin for 2 h at 37° C. After washing plates 5 times with TBST, 500 nM AB1_pan_hiKR3-V5 Alphabody was added to the plates for 2 h at RT while shaking. Plates were washed 10 times with TBST and five-fold dilutions of Glutathione S transferase (GST) tagged recombinant BCL-2 family proteins (MCL-1, BCL-XL and BCL-2a) were added and further incubated for 2 h at RT while shaking. Binding of GST-tagged recombinant BCL-2 family proteins was detected using an anti-GST antibody conjugated to Horse Radish Peroxidase. […] Signals indicative for specific binding of AB1_pan_hiKR3-V5 to the particular BCL-2 family recombinant protein were read at 492 nm and 630 nm.
# [3] = biological target: T2, GST-tagged recombinant human BCL-XL with a C terminal deletion of 24 amino acids (human, UniProt Q07817 1-209); experiment: as above
# T2 construct: domain: BCL-XL with a C terminal deletion of 24 amino acids; Produced in E. coli as an N-terminal GST fusion; also called GST-BCL-XL; not shown: Glutathione S Transferase (GST) tag at the N-terminus
# Description: as §1, §2
# [4] = biological target: T2, GST-tagged recombinant human BCL-XL …; experiment: ELISA: Alphabody (500 nM) captured by immobilized anti-V5 antibody, five-fold dilutions of GST-BCL-XL, detection with anti-GST-HRP, OD read at 492 nm and 630 nm
# Description: as §1, §2
# T1 sequence (Q07820 172-327 limits assumed): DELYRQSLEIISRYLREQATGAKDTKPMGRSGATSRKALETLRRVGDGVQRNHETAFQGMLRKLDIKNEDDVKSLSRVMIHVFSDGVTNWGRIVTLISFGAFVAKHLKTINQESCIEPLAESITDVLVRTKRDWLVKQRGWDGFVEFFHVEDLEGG
# T2 sequence (Q07817 1-209, stated change not applied): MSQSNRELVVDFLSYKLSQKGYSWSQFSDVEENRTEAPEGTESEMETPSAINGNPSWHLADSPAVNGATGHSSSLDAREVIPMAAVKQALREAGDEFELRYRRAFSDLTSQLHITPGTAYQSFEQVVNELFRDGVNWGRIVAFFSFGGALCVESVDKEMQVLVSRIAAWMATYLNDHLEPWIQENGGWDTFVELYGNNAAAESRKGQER
binding result [1],EC50 (read off the curve) [2],EC50 (read off the curve) [3],EC50 (read off the curve) [4],EC50 (read off the curve) [1],Binder
no binding (tested: 200 nM),–,–,–,–,"Alphabody MB23_hiR-V5 (designed binder, Cationized Alphabody directed against IL-23, with His-tag and V5 tag; Used as control in the BCL-2 family ELISA; also called cationized MB23; control Alphabody MB23-hiR-V5) MSIEQIQKEITTIQEVIAAIQKYIYTMTGGSGGSGGMSIQQIQAAIRRIQRAIRRIQRAIRRMTGSGGGGSGMSIEEIQKQIAAIQEQIVAIYKQIMAMASHHHHHHGKPIPNPLLGLDST"
–,~2 nM,~5 nM,~5 nM,~2 nM,"Alphabody AB1_pan_hiKR3-V5 (designed binder, captured on the plate by anti-V5 antibody in the ELISA) MSIEEIQKQFKRIQKQIKRIAKQIKRMTGGSGGSGGMSIEEIAAQIAAIQLRIIGDQFNIYYMTGSGGGGSGGSIEEIKKSIRAIQKEIKKIQKKIKKMTPHHHHHHHHHHGKPIPNPLLGLDST"
–,–,–,–,~1 nM,Alphabody AB1_A2aF_hiKR3-V5 (designed binder) MSIQQIQKQFKRIQKQIKRIEKQIKRMTGGSGGSGGMSIEEITKQIAAIQLRIVGDQVQIYAMTGGSGGGSGGGSGGGSGGSIEEIKKSIRAIQKEIKKIQKKIKKMTPHHHHHHHHHHGKPIPNPLLGLDST
